The values below come from PMC4764983.

The experiment has as its target histone deacetylase 1 (HDAC1), endogenous mouse (mouse (endogenous in C3H10T1/2 and STO)) (UniProt O09106).
Sequence of UniProt O09106 (O09106 whole entry): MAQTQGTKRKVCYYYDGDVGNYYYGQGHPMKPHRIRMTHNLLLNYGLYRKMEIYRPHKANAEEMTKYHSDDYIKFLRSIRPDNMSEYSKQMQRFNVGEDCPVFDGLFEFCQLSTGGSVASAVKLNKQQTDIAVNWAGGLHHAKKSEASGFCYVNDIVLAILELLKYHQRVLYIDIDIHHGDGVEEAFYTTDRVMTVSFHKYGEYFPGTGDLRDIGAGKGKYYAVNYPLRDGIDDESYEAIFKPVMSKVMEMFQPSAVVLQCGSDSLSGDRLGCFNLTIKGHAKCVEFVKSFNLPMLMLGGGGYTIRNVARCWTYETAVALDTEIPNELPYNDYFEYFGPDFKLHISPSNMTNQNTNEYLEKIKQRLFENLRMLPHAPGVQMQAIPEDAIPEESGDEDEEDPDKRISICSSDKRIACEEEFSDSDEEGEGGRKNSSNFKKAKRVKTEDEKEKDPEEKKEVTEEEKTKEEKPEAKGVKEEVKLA

The substance V5-tagged SS18-SSX1 fusion protein registered a fold increase in AXIN2 message (Q-PCR) after treatment with the HDAC inhibitor TSA in C3H10T1/2^SS18-SSX1-V5 cells, compared to a 6 fold increase in C3H10T1/2^pLIVc of 3 fold.
